Measurements: paper PMC12141489 (Scientific Reports, 2025)
Each block holds one binder with its values, some of them ahead of it. Where no end group is shown, it is not given here. The star is where a group is joined. Biotin = O=C1N[C@H]2[C@H](CS[C@H]2CCCCC(=O)*)N1

Key:
[1] = biological target: Ab2 (humanized antibody) (human); experiment: SPR
[2] = biological target: Ab4 (humanized antibody) (human); experiment: SPR
[3] = biological target: myc-tagged human TRPM4 on HEK 293 cells (Homo sapiens, UniProt Q8TD43); experiment: immunostaining of cells or tissue
myc-tagged human TRPM4 on HEK 293 cells, sequence (Q8TD43 whole entry): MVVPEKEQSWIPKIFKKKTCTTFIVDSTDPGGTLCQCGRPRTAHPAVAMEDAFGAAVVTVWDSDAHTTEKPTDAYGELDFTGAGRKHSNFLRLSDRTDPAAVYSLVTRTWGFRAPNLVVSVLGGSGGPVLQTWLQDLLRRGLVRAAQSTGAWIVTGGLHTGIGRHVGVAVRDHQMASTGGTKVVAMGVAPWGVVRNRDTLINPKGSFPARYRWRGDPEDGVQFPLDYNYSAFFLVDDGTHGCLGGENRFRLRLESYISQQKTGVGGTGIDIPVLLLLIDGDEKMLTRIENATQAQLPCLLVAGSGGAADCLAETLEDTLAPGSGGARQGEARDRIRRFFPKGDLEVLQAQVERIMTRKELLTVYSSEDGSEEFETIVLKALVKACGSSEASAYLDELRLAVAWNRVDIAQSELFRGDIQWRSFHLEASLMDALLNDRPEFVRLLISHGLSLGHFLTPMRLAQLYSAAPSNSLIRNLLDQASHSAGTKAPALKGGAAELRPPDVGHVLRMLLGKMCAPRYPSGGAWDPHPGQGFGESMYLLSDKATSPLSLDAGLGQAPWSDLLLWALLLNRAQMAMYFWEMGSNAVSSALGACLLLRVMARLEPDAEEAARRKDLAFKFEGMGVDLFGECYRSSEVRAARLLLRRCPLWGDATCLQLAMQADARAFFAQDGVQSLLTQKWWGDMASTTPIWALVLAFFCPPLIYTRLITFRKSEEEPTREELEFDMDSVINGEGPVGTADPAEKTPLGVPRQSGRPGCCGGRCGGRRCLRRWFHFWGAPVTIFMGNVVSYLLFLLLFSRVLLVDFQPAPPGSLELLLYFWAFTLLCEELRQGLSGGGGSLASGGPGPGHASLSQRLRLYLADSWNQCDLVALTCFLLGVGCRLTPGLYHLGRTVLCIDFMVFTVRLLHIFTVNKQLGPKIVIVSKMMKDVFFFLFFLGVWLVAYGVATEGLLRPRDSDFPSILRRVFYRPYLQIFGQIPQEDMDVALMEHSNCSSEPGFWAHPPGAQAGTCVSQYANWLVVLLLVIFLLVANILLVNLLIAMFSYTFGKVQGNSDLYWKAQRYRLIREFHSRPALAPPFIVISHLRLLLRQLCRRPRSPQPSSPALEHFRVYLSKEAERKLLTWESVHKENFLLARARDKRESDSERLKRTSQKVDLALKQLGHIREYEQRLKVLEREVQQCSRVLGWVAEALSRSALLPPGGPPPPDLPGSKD

koff [1]: 0.00166 s⁻¹
Kd [2]: 7 nM
B1: Peptide-biotin (…{Lys(biotin)}) (peptide)
peptide: RDSDSNCSSEPGFWAHPPGAQK(Biotin)

B2: Ab1 (chimeric antibody) (antibody, V domains shown)
VH: QVQLQESGPGLVKPSQSLSLTCTVTGYSITSDYAWNWIRQFPGNKLQWMGYLSYSGVTSYNPSLKGRISITRDTSKNQFFLQLSSVTPEDTATYYCARKGTYYRYEGSYWYFDVWGAGTTVTVSS
VL: DIQMNQSPSSLSASLGDTITITCHANQNIDVWLSWYQQKPGNVPKLLIYKTSNLHTGVPSRFSGSGSGTDFTLTISSLQPEDIATYYCQQGQSYPLTFGGGTKLEIK
binding result [3]: binds
